The target of assay [1] is His6-tagged 14-3-3ε (human) (UniProt P62258). Put plainly: SPR. (Surface plasmon resonance follows binding to a sensor surface in real time, without labels.)
For assay [2], the target named is 14-3-3ε/γ heterodimer (His6-tagged 14-3-3ε with untagged 14-3-3γ) (human) (UniProt P62258). The assay is described as follows: SPR.
Assay [3] deals with human 14-3-3ε devoid of the C-terminal flexible tail (14-3-3εΔC) (human). Put plainly: SEC.

Kd, stoichiometry N (STARD1 per 14-3-3 subunit (2:2)) and stoichiometry N data for one molecule are collected here from publication doi:10.1101/2020.04.14.040436.

As usually defined, the Kd is the constant that tells how readily two partners part at equilibrium. For orientation: stoichiometry N means a count of units in the complex or per binding partner.

human 14-3-3ε devoid of the C-terminal flexible tail (14-3-3εΔC) (human), sequence (B3KY71 whole entry, stated change not applied): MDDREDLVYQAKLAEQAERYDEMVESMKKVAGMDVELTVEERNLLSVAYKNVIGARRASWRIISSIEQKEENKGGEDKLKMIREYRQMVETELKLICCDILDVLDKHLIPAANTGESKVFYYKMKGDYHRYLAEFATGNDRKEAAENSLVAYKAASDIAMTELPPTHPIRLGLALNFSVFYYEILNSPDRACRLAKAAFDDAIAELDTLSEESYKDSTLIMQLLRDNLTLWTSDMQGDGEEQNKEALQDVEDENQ

B1: STARD1_(46-285)-S56A/L59P phosphorylated at Ser57 and Ser195 (domain or fragment)
chain: STWINQVRRRASLPGSRLEETLYSDQELAYLQQGEEAMQKALGILSNQEGWKKESQQDNGDKVMSKVVPDVGKVFRLEVVVDQPMERLYEELVERMEAMGEWNPNVKEIKVLQKIGKDTFITHELAAEAAGNLVGPRDFVSVRCAKRRGSTCVLAGMATDFGNMPEQKGVIRAEHGPTCMVLHPLAGSPSKTKLTWLLSIDLKGWLPKSIINQVLSQTQVDFANHLRKRLESHPASEARC
modifications: phosphoserine at 57; phosphoserine at 195
As for B1, the values for the dissociation constant Kd in assay [1] and in assay [2] were 13 µM and 15 µM, respectively. The stoichiometry N (STARD1 per 14-3-3 subunit (2:2)) in assay [3] was determined as 1. The molecule also yielded a stoichiometry N in assay [3] (scale: STARD1 per 14-3-3 subunit) of 0.5.
